± gives the uncertainty stated by the source.
B1: Peripheral plasma membrane protein CASK, residues 488 to 569; numbered along this chain, O14936 (parent)
chain: VRLVQFQKNTDEPMGITLKMNELNHCIVARIMHGGMIHRQGTLHVGDEIREINGISVANQTVEQLQKMLREMRGSITFKIVP

Variants of: B1
Assay: abundance fitness (aPCA) (normalised: wild type 0, dead -1); higher = more abundant; growth selection in yeast, the domain comes from the species named
Settings: Homo sapiens

| Variant | abundance fitness |
| --- | --- |
| VRLVQFQKNTDEPMGITLKMNELNHCIVARIMHGGMIHRQGTLHVGDEIREINGISVANQTVEQLQKMLRYMRGSITFKIVP [E71Y] | 0.017 ± 0.051 |
| VRLVQFQKNTDEPMGITLKMNELNHCIVARIMHGGMIHRQGTLHVGDEIREINGISVANQTVEQLQKMLRGMRGSITFKIVP [E71G] | 0.006 ± 0.022 |
| VRLVQFQKNTDEPMGITLKMNELNHCIVARIMHGGMIHREGTLHVGDEIREINGISVANQTVEQLQKMLREMRGSITFKIVP [Q40E] | 0.018 ± 0.024 |
| VRLVQFQKNTDEPMGITLKMNELNHCIVARIMHGGMIHRMGTLHVGDEIREINGISVANQTVEQLQKMLREMRGSITFKIVP [Q40M] | -0.055 ± 0.026 |
| VRLVQFQKNTDEPMHITLKMNELNHCIVARIMHGGMIHRQGTLHVGDEIREINGISVANQTVEQLQKMLREMRGSITFKIVP [G15H] | -0.549 ± 0.057 |
| VRLVQFQKNTDEPMGITLKMNELNHCIVARIMHGGMIHRQGTLHVGDEIREINGISVANQTVEYLQKMLREMRGSITFKIVP [Q64Y] | 0.005 ± 0.038 |
| VRLVQFQKNTDEPMGITLKMNELNHCIVARIMHGGMIHRQGTLHVGDEIREINGISVANQTVEFLQKMLREMRGSITFKIVP [Q64F] | 0.007 ± 0.037 |
| VRLVQFQKNTDEHMGITLKMNELNHCIVARIMHGGMIHRQGTLHVGDEIREINGISVANQTVEQLQKMLREMRGSITFKIVP [P13H] | -0.054 ± 0.051 |
| YRLVQFQKNTDEPMGITLKMNELNHCIVARIMHGGMIHRQGTLHVGDEIREINGISVANQTVEQLQKMLREMRGSITFKIVP [V1Y] | 0.017 ± 0.059 |
| VRLVQFQKNTDEPMGITLKMNELNHCIVARIMHGGMIHRQGTLHVGDEIREINGISVANQTVEQLQKMLREMHGSITFKIVP [R73H] | -0.044 ± 0.055 |
| VRLVQFQKNTDEPMGITLKMNELNHCIVARIMHGGMIHRQGTLHVGDEIRENNGISVANQTVEQLQKMLREMRGSITFKIVP [I52N] | -0.199 ± 0.22 |
| VRLVQFQKNTDEPMGITLKMNELNHCIVARIMHGGMIHRQGTLHVGDEIREVNGISVANQTVEQLQKMLREMRGSITFKIVP [I52V] | -0.036 ± 0.12 |
| VRLVQFQKNTDEPMGITLKMNELNHCIVARIMHGGMIHRQGTLHVGDEIREINQISVANQTVEQLQKMLREMRGSITFKIVP [G54Q] | -0.085 ± 0.077 |
| VRLVQFQKNTDEPMGITLKMNELNHCIVARIMHGGMIHRQGTLHVGDEIREINRISVANQTVEQLQKMLREMRGSITFKIVP [G54R] | -0.193 ± 0.028 |
| VRLVQFQKNTDEPMGITLKMNELNHCIVARIMHGGMIHRQGTLHVGDEIREINGISVANQTVEQKQKMLREMRGSITFKIVP [L65K] | -0.878 ± 0.081 |
| VRLVQFQKNTDEPMGITLKMNELNHCIVARIMHGGMIHRQGTLHVGDEIREINGISRANQTVEQLQKMLREMRGSITFKIVP [V57R] | -0.973 ± 0.038 |
| VRLVQFQKNTDEPMGITLKMNELNHCIVARIMHGGMIHRQGTLHVGDEIREINGISQANQTVEQLQKMLREMRGSITFKIVP [V57Q] | -0.8 ± 0.051 |

| Variant | abundance fitness |
| --- | --- |
| VRLVQFQKNTDEPMGITLKMNELNHCIVARIMHGGMIHRQGTLHVGDEIREINGISVANQTVEQLQKMLREMRGWITFKIVP [S75W] | -0.04 ± 0.031 |
| VRLVQFQKNTDEPMGITLKMNVLNHCIVARIMHGGMIHRQGTLHVGDEIREINGISVANQTVEQLQKMLREMRGSITFKIVP [E22V] | -0.079 ± 0.027 |
| VRLVQFQKNTDEPMGITLKMNELNHCIVARIMHGGMIHRQGTLHVGDEIREINGISVANQTVEQLQKVLREMRGSITFKIVP [M68V] | -0.026 ± 0.024 |
| VRLVQFQKNTDEPMGITLKMNELNHCIVARIMHGGMIHRQGTLHVGDEIREINGISVANQTVEQLQKCLREMRGSITFKIVP [M68C] | -0.026 ± 0.033 |
| VRLVQFQKNTDEPMGITLKMNELNHCIVARIMHGGMIHRQGTLHVGDEIREINGIIVANQTVEQLQKMLREMRGSITFKIVP [S56I] | -0.155 ± 0.048 |
| VRLVQFQKNTDEPMGITLKMNELNHCIVARIMHGGMIHRQGTLHVGDEIREINGILVANQTVEQLQKMLREMRGSITFKIVP [S56L] | -0.08 ± 0.026 |
| VRLVQFQKNTDVPMGITLKMNELNHCIVARIMHGGMIHRQGTLHVGDEIREINGISVANQTVEQLQKMLREMRGSITFKIVP [E12V] | -0.139 ± 0.029 |
| VRLVQFQKNTDEPMGITLKMNELNHKIVARIMHGGMIHRQGTLHVGDEIREINGISVANQTVEQLQKMLREMRGSITFKIVP [C26K] | -0.202 ± 0.04 |
| VRLVQFQKNTDEPMGITLKMNELNHMIVARIMHGGMIHRQGTLHVGDEIREINGISVANQTVEQLQKMLREMRGSITFKIVP [C26M] | -0.076 ± 0.033 |
| VRLVQFQKNTDEPMGITLKMNELNHWIVARIMHGGMIHRQGTLHVGDEIREINGISVANQTVEQLQKMLREMRGSITFKIVP [C26W] | -0.031 ± 0.026 |
| VRLVQFQKWTDEPMGITLKMNELNHCIVARIMHGGMIHRQGTLHVGDEIREINGISVANQTVEQLQKMLREMRGSITFKIVP [N9W] | -0.081 ± 0.025 |
| VRLVQHQKNTDEPMGITLKMNELNHCIVARIMHGGMIHRQGTLHVGDEIREINGISVANQTVEQLQKMLREMRGSITFKIVP [F6H] | -0.181 ± 0.053 |
| VRLVQFQKNTDEPMGITLKMNELNHCIVARIMHGGMIHRQGTLHVGDEIREINGISVANQTVEQLQCMLREMRGSITFKIVP [K67C] | 0.013 ± 0.035 |
| VRLVQFQKNTDEPMGITLKMNELNHCIVARIMHGGMIHRQGTLHVGDEIREINGISVANQTVEQLQSMLREMRGSITFKIVP [K67S] | -0.038 ± 0.029 |
| VRLVQFQKNTDEPMGITKKMNELNHCIVARIMHGGMIHRQGTLHVGDEIREINGISVANQTVEQLQKMLREMRGSITFKIVP [L18K] | -0.796 ± 0.14 |
| VRLVQFQKNTDEPMGITLKMNELNHCIVARIMHGGMIHRQPTLHVGDEIREINGISVANQTVEQLQKMLREMRGSITFKIVP [G41P] | -0.541 ± 0.047 |
